Reference: article doi:10.1101/2025.08.07.668011, “High-Speed AFM Reveals IDR-Mediated Structural Plasticity of EML4-ALK Modulated by ALK Inhibitors” (bioRxiv, 2025)
Values joined by “and” are separate entries in the source; they are usually repeats but may differ in a detail not shown here. Equal values may be shown once.

Target: the molecule itself
Assay: high-speed atomic force microscopy (HS-AFM); purified protein (approximately 3 nM) deposited on mica for 10 min, rinsed, imaged in 1/10 diluted PBS in tapping mode; oligomeric state from total pixel density, number of globules and behaviour in time-lapse images; molecules counted as monomer, dimer or trimer in broad fields; formation and dissociation seen in real time (reversible)

B1: EML4-ALK variant-1 (v1, E13:A20) (natural protein, human, UniProt Q9HC35 1-496, looked up)
chain: MDGFAGSLDDSISAASTSDVQDRLSALESRVQQQEDEITVLKAALADVLRRLAISEDHVASVKKSVSSKGQPSPRAVIPMSCITNGSGANRKPSHTSAVSIAGKETLSSAAKSGTEKKKEKPQGQREKKEESHSNDQSPQIRASPSPQPSSQPLQIHRQTPESKNATPTKSIKRPSPAEKSHNSWENSDDSRNKLSKIPSTPKLIPKVTKTADKHKDVIINQEGEYIKMFMRGRPITMFIPSDVDNYDDIRTELPPEKLKLEWAYGYRGKDCRANVYLLPTGKIVYFIASVVVLFNYEERTQRHYLGHTDCVKCLAIHPDKIRIATGQIAGVDKDGRPLQPHVRVWDSVTLSTLQIIGLGTFERGVGCLDFSKADSGVHLCIIDDSNEHMLTVWDWQKKAKGAEIKTTNEVVLAVEFHPTDANTIITCGKSHIFFWTWSGNSLTRKQGIFGKYEKPKFVQCLAFLGNGDVLTGDSGGVMLIWSKTTVEPTPGKGPKVYRRKHQELQAMQMELQSPEYKLSKLRTSTIMTDYNPNYCFAGKTSSISDLKEVPRKNITLIRGLGHGAFGEVYEGQVSGMPNDPSPLQVAVKTLPEVCSEQDELDFLMEALIISKFNHQNIVRCIGVSLQSLPRFILLELMAGGDLKSFLRETRPRPSQPSSLAMLDLLHVARDIACGCQYLEENHFIHRDIAARNCLLTCPGPGRVAKIGDFGMARDIYRASYYRKGGCAMLPVKWMPPEAFMEGIFTSKTDTWSFGVLLWEIFSLGYMPYPSKSNQEVLEFVTSGGRMDPPKNCPGPVYRIMTQCWQHQPEDRPNFAIILERIEYCTQDPDVINTALPIEYGPLVEEEEKVPVRPKDPEGVPPLLVSQQAKREEERSPAAPPPLPTTSSGKAAKKPTAAEISVRVPRGPAVEGGHVNMAFSQSNPPSELHKVHGSRNKPTSLWNPTYGSWFTEKPTKKNNPIAKKEPHDRGNLGLEGSCTVPPNVATGRLPGASLLLEPSSLTANMKEVPLFRLRHFPCGNVNYGYQQQGLPLEAATAPGAGHYEDTILKSKNSMNQPGP
notes: EML4, N-terminal part up to exon 13 (E13:A20): CC/TD domain, basic region, part of the TAPE domain (HELP, WD repeats); ALK, from exon 20 (A20) to the C-terminus, residues 1058-1620, holds the tyrosine kinase domain; ENLYFQ probably stays; also called EML4-ALK v1; source: Expi293F, transfected, purified (anti-FLAG M2 gel, TEV protease and His-tag beads, Superdex 200 SEC); not shown: His tag …
B1 was tested, and the ratio of dimers was 15%, the ratio of trimers was 9% and the “stoichiometry N” value was 2 and 3.
